Results taken from the supplement of paper PMC9170038.

Tested on: MS2 coat protein
Test: apparent KD of MS2 coat protein; designed switch direction (-1 OFF switch, 1 ON switch): -1; higher = weaker reporter binding
How it was run: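 Designed RNA switches sharing common flanks were transcribed on Illumina chips by stalled E. coli RNA polymerase. They were titrated with SNAP-549-labelled MS2 coat protein, from 0.7 or 1.5 nM doubling to 3 µM, in Tris-HCl pH 7.5 buffer with KCl, MgCl2, BSA, DTT, tRNA and Tween-20. Titrations ran without input, with 200 uM small-molecule ligand, or with an oligonucleotide input. The apparent KD of each design is the median over its clusters, after curve-fitting of normalised cluster fluorescence.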

[1] = input ligand: microRNA oligo, concentration not stated
[2] = Eterna round: R95, input ligand: microRNA oligo, concentration not stated
[3] = Eterna round: R95, input ligand: FMN 200 uM
[4] = Eterna round: R95, input ligand: none

Sequence: AGAUAGAGCUGAGGAUAUGAGAAUAGAAAGAAAUCAGAAGGCAGACAUGAGGAUCACCCAUGUGAGUUCUUGAGAUUACAUGGU [Prohibition 43 - Jieux - Exclusion NG 1] (Eterna round: R96, puzzle: Exclusion NG 1)
- apparent KD of MS2 coat protein (input ligand: FMN 200 uM): 498 nM
- apparent KD of MS2 coat protein [1]: 221 nM
- apparent KD of MS2 coat protein (input ligand: none): 247 nM

Sequence: AGAUCACAUGAGGAUCACCCAUGUCAGGAUAUCGACUGAUCAGCUUCGGCUGAUCAGUCGAGAAGGGACAAUUA [E1/1-A2] (Eterna round: R97, puzzle: Exclusion 1)
- apparent KD of MS2 coat protein (input ligand: FMN 200 uM): 511 nM
- apparent KD of MS2 coat protein (input ligand: none): 280 nM

Sequence: AGAUCACAUGAGGAUCACCCAUGUGAGGAUAUAGAUUCAAGAGCUUCGGCUCUAAAGUCUAGAAGGCACUAUGA [EX1 #47] (Eterna round: R97, puzzle: Exclusion 1)
- apparent KD of MS2 coat protein (input ligand: FMN 200 uM): 29.1 nM
- apparent KD of MS2 coat protein (input ligand: none): 25.4 nM

Sequence: AGAUCACAUGAGGAUCACCCAUGUGAGGAUAUGAUACUAUGUACUUCGGUACAUAGUAUCAGAAGGCAUAUGAA [Ex1-3: 73] (puzzle: Exclusion 1)
- apparent KD of MS2 coat protein [2]: 28.9 nM

Sequence: AGAUCACAUGAGGAUCACCCAUGUGAGGAUAUGAUACUAUGUACUUCGGUACAUAGUAUCAGAAGGCAUGUGAA [Ex1-3: 74] (puzzle: Exclusion 1)
- apparent KD of MS2 coat protein [2]: 42.7 nM

Sequence: AGAUCACGAGGAUAUCCAGUGUAGUACAUGAGGAUCACCCAUGUUGAUCGUGGAUUCUUGGGAGAAGGCGUGGUUG [Eternabot (L2) Solution 100] (Eterna round: R97, puzzle: Exclusion 5)
- apparent KD of MS2 coat protein (input ligand: FMN 200 uM): 237 nM
- apparent KD of MS2 coat protein (input ligand: none): 60.6 nM

Sequence: AGAUCGUCAGGAUAUACAUGAGGAUCACCCAUGUGUAGUCUAAAUUUGACUACAAUAUGUAGAAGGGACGAUCG [Exclusion 3 (MOD3 of #1 Marzena11)] (Eterna round: R97, puzzle: Exclusion 3)
- apparent KD of MS2 coat protein (input ligand: FMN 200 uM): 98.9 nM
- apparent KD of MS2 coat protein (input ligand: none): 42.8 nM

Sequence: AGAUGGCGAGGAUAUACAUGAGGAUCACCCAUGUGAAGAAGAAGAGUGAGGAAGAAAAGUAGAAGGCGCUGUCA [Mat - Exclusion 3 - Mod of Salish D30] (puzzle: Exclusion 3)
- apparent KD of MS2 coat protein [3]: 137 nM
- apparent KD of MS2 coat protein [2]: 45.8 nM
- apparent KD of MS2 coat protein [4]: 64.7 nM

Sequence: AGAUGGCGAGGAUAUACAUGAGGAUCACCCAUGUGAAGAAGAAUAGUGAGGAAGAAAAGUAGAAGGCGCUGUCA [Mat - Exclusion 3 - Mod of Salish D32] (puzzle: Exclusion 3)
- apparent KD of MS2 coat protein [2]: 49.4 nM

Sequence: AGAUGGCGAGGAUAUACAUGAGGAUCACCCAUGUGAAGAUAAUAAGUGAGGAAGAAAAGUAGAAGGCGCUGUCA [Mat - Exclusion 3 - Mod of Salish D26] (puzzle: Exclusion 3)
- apparent KD of MS2 coat protein [3]: 398 nM
- apparent KD of MS2 coat protein [2]: 72.6 nM
- apparent KD of MS2 coat protein [4]: 70.4 nM

Sequence: AGAUGUAGAUACCGAUCCUACAUGAGGAUCACCCAUGUAGCUAGACGUGCGCGCGUCGCUCGUCAGACUACCAGUAG [salish99_TOv1_r3_092] (puzzle: Sensor v3, turn-off variant 1)
- apparent KD of MS2 coat protein [3]: 330 nM
- apparent KD of MS2 coat protein [2]: 296 nM
- apparent KD of MS2 coat protein [4]: 157 nM

Sequence: AGAUGUAGAUGCCGAUCCUACAUGAGGAUCACCCAUGUAGCUAGACGUGCGGGCGGCGCUCGUCGGACUACCAGUAG [salish99_TOv1_r3_097] (puzzle: Sensor v3, turn-off variant 1)
- apparent KD of MS2 coat protein [3]: 78.8 nM
- apparent KD of MS2 coat protein [2]: 82.4 nM
- apparent KD of MS2 coat protein [4]: 124 nM

Sequence: AGAUUAAAAGUAAGGAUAUGCUUCCGGAAACGGAGGCAGAAGGUACAUGAGGAUCACCCAUGUUAAACUAAUUU [Explosion 5 - Jieux - Brourd's mod of Exclusion 4] (Eterna round: R97, puzzle: Brourd's mod of Exclusion 4)
- apparent KD of MS2 coat protein (input ligand: FMN 200 uM): 21.2 nM
- apparent KD of MS2 coat protein (input ligand: none): 15.3 nM

Sequence: AGAUUGAAUGAGGAUAUCGUUGCGGGUACGUAGCGAGAAGGCAUGACAUGAGGAUCACCCAUGUAGUGUGGGUU [JR_Ex6_Sub019] (Eterna round: R97, puzzle: Exclusion 6)
- apparent KD of MS2 coat protein (input ligand: FMN 200 uM): 805 nM
- apparent KD of MS2 coat protein (input ligand: none): 336 nM

Sequence: AGAUUGCAUGAGGAUAUCGUAUUAGAUAUAAUGCGAGAAGGCAUGACAUGAGGAUCACCCAUGUAGUGUUGGGA [JR_Ex6_Sub012] (Eterna round: R97, puzzle: Exclusion 6)
- apparent KD of MS2 coat protein (input ligand: FMN 200 uM): 75.1 nM
- apparent KD of MS2 coat protein (input ligand: none): 52.6 nM

Sequence: AGCAAGCUUUAAAGAUCCUACAUGAGGAUCACCCAUGUGCUCGUCUUAUAACGUACUGUGACGAAAGUCACGGUACG [JL TOV1 3.33] (Eterna round: R97, puzzle: Sensor, turn-off variant 1)
- apparent KD of MS2 coat protein (input ligand: FMN 200 uM): 357 nM
- apparent KD of MS2 coat protein (input ligand: none): 603 nM

Sequence: AGCAAGCUUUUAAGAUCCUACAUGAGGAUCACCCAUGUGCUCGUCUUAUAACGUACUGUGACGAAAGUCACGGUACG [JL TOV1 3.32] (Eterna round: R97, puzzle: Sensor, turn-off variant 1)
- apparent KD of MS2 coat protein (input ligand: FMN 200 uM): 253 nM
- apparent KD of MS2 coat protein (input ligand: none): 217 nM

Sequence: AGCAUCUGAGGAUAUACUGGGUAUGGAAGGCGAAGGGCCAGACAUGAGGAUCACCCAUGUAGAAGGCAGUUUGC [Esenonan] (Eterna round: R96, puzzle: Exclusion 2)
- apparent KD of MS2 coat protein (input ligand: FMN 200 uM): 39.2 nM
- apparent KD of MS2 coat protein [1]: 42 nM
- apparent KD of MS2 coat protein (input ligand: none): 65.4 nM

Sequence: AGCAUCUGAGGAUAUACUGGGUAUGGAAGGCGAAGGGCCAGACAUGAGGAUCACCCAUGUAGAAGGCAGUUUGC [Esenonan] (puzzle: Exclusion 2)
- apparent KD of MS2 coat protein [2]: 78.4 nM

Sequence: AGCAUGAGAGAGGAUAUGGUCGCCGCAACAUGACCAGAAGGCUCAACAUGAGGAUCACCCAUGUGGCCCGGCUC [Eternabot (L1) Solution 33] (Eterna round: R97, puzzle: Exclusion 6)
- apparent KD of MS2 coat protein (input ligand: FMN 200 uM): 33.2 nM
- apparent KD of MS2 coat protein (input ligand: none): 19.5 nM

Sequence: AGCCACAGAGGAUAUACAUACAUCCAGUAGCGUAUAUCGCUACAUGAGGAUCACCCAUGUAGAAGGCUGUGGCA [Omei Ex2 BD B23] (Eterna round: R97, puzzle: Exclusion 2)
- apparent KD of MS2 coat protein (input ligand: FMN 200 uM): 86.7 nM
- apparent KD of MS2 coat protein (input ligand: none): 18.4 nM

Sequence: AGCCUACAUGAGGAUCACCCAUGUCAGGAUAUCUCGCAACGUGUCAAGUUCACGUCGCAGAGAAGGGACUCGGG [Tienberi] (puzzle: Exclusion 1)
- apparent KD of MS2 coat protein [2]: 51.9 nM

Sequence: AGCGAGGCAGGAUAUACAUGAGGAUCACCCAUGUGCUUGCAUGGCGUGGGACGUCGAGGUAGAAGGGCCAUGCC [EX3 #70] (Eterna round: R97, puzzle: Exclusion 3)
- apparent KD of MS2 coat protein (input ligand: FMN 200 uM): 87.3 nM
- apparent KD of MS2 coat protein (input ligand: none): 52.1 nM

Sequence: AGCGCCAUCGUGAGAUGGCGUAUUACAUGAGGAUCACCCAUGUAGGAUAUCGAUUGCUUUGCAGUCGAGAAGGACAUGUCCUAG [JL ENG3 3.80 Mod F] (Eterna round: R96, puzzle: Exclusion NG 3)
- apparent KD of MS2 coat protein (input ligand: FMN 200 uM): 38.3 nM
- apparent KD of MS2 coat protein [1]: 23.4 nM
- apparent KD of MS2 coat protein (input ligand: none): 27.9 nM

Sequence: AGCGUGUGAGAAGGAUAUCGACCCGAGACAGAUUGAGAAGGUCUCACAUGAGGAUCACCCAUGUGGACAGGGCGAGCUCCAGUC [Eternabot solution 11] (Eterna round: R96, puzzle: Exclusion NG 1)
- apparent KD of MS2 coat protein (input ligand: FMN 200 uM): 28.3 nM
- apparent KD of MS2 coat protein [1]: 14.6 nM
- apparent KD of MS2 coat protein (input ligand: none): 23.4 nM

Sequence: AGCUAAAUAGGAUAUGCCCGGGAUAACAUGAGGAUCACCCAUGUGACCGAUUCAUGUCCUGCAGAAGGAUUUGGGA [Mod of ViennaUCT 5 - Jieux - Exclusion 5] (Eterna round: R97, puzzle: Exclusion 5)
- apparent KD of MS2 coat protein (input ligand: FMN 200 uM): 17 nM
- apparent KD of MS2 coat protein (input ligand: none): 13 nM

Sequence: AGCUAGUCAGGAUAUACGAACAUGUCAAAAGACGUGAAGGGACAUGAGGAUCACCCAUGUAGAAGGGACUAGCC [salish99-Ex2-17] (Eterna round: R96, puzzle: Exclusion 2)
- apparent KD of MS2 coat protein [1]: 23.8 nM

Sequence: AGCUCACAUGAGGAUCACCCAUGUCAGGAUAUCGACUGAACAGCUUCGGCUGUUCAGUCGAGAAGGGACAAUUA [Brourdxlusion 5 - Jieux - Exclusion 1] (Eterna round: R97, puzzle: Exclusion 1)
- apparent KD of MS2 coat protein (input ligand: FMN 200 uM): 182 nM
- apparent KD of MS2 coat protein (input ligand: none): 59.7 nM

Sequence: AGCUGUGGCCGAGGAUAUACAAUAACGAUGAGUGGAUUACACUCUUCGACAUGAGGAUCACCCAUGUAGAAGGCGGUCUCAGCA [Eli eng2 - 001] (Eterna round: R96, puzzle: Exclusion NG 2)
- apparent KD of MS2 coat protein (input ligand: FMN 200 uM): 41.3 nM
- apparent KD of MS2 coat protein [1]: 14.6 nM
- apparent KD of MS2 coat protein (input ligand: none): 18 nM

Sequence: AGCUGUGGCCGAGGAUAUCACGACCGAUGGAAAACCAUCGGAACUCCACAUGAGGAUCACCCAUGUGAGAAGGCGGUCUCAGCA [Eli eng2 - 028] (Eterna round: R96, puzzle: Exclusion NG 2)
- apparent KD of MS2 coat protein (input ligand: FMN 200 uM): 27.3 nM
- apparent KD of MS2 coat protein [1]: 10.2 nM
- apparent KD of MS2 coat protein (input ligand: none): 13.4 nM

Sequence: AGCUGUGGCCGAGGAUAUCUAAUAUCCCUAACCGAAAUAUAAUCGGACAUGAGGAUCACCCAUGUAGAGAAGGCGGUCUCAGCA [Eli eng2 - 065] (Eterna round: R96, puzzle: Exclusion NG 2)
- apparent KD of MS2 coat protein (input ligand: FMN 200 uM): 211 nM
- apparent KD of MS2 coat protein [1]: 19.3 nM
- apparent KD of MS2 coat protein (input ligand: none): 20.8 nM

Sequence: AGCUGUGGCCGAGGAUAUCUACUAAUCCAAACCGAAAUAUAAUCGGACAUGAGGAUCACCCAUGUAGAGAAGGCGGUCUCAGCA [Eli eng2 - 076] (Eterna round: R96, puzzle: Exclusion NG 2)
- apparent KD of MS2 coat protein [1]: 199 nM

Sequence: AGCUGUGGCCGAGGAUAUCUAUCUCAAAUAACCGAAAUAUAAUCGGACAUGAGGAUCACCCAUGUAGAGAAGGCGGUCUCAGCA [Eli eng2 - 089] (Eterna round: R96, puzzle: Exclusion NG 2)
- apparent KD of MS2 coat protein [1]: 11.4 nM

Sequence: AGCUGUGGCCGAGGAUAUCUGUUCCAUAAAACCGAAAUAUAAUCGGACAUGAGGAUCACCCAUGUAGAGAAGGCGGUCUCAGCA [Eli eng2 - 099] (Eterna round: R96, puzzle: Exclusion NG 2)
- apparent KD of MS2 coat protein [1]: 18.3 nM
